In article PMC11551737, “Structural and functional insights into the interaction between the bacteriophage T4 DNA processing proteins gp32 and Dda” (Nucleic Acids Research, 2024):
“Also recorded” adds a separate entry of the source.

Columns and labels:
Dda-K38A/dT20 = molecular target: T1, Dda-K38A/dT20 (Enterobacteria phage T4, UniProt P32270, K38A); assay type: binding, bacteriophage T4; conditions: SPR analysis 1, peptides up to 100 μM, 25°C
T1 construct: made in house
Experimental: These experiments were conducted at 25°C using a Biacore 3000 optical biosensor (Cytiva). […] The chip was primed in chelating buffer (10 mM HEPES pH 7.4, 150 mM NaCl, 50 μM EDTA, 0.005% Tween20) and was preconditioned at 10 μl/min with three 60 s injections of wash buffer (10 mM HEPES pH 8.3, 150 mM NaCl, 350 mM EDTA, 0.05% Tween20) and one 60 s injection of chelating buffer before being charged with a 60 s injection of 500 μM NiCl2 in chelating buffer. […] Any remaining active sites were blocked by Tris molecules in the binding analysis buffer (20 mM Tris-acetate pH 8.0, 150 mM NaCl, 10 mM magnesium acetate, 3 mM potassium glutamate, 1 mM TCEP, 0.05% Tween20, 10% glycerol). One flow cell on the chip was charged with Ni^2+ and activated with EDC/NHS without adding protein to be used as a reference cell. gp32 C-terminal peptides were prepared in binding analysis buffer as a 4-fold dilution series at maximum concentration 100 μM for screening and were injected at a flow rate of 75 μl/min. […] The data were processed, double-referenced and analyzed using the software package Scrubber2 (version 2.0c, BioLogic Software). The equilibrium dissociation constants (KD) were determined using steady-state analysis, specifically an equilibrium affinity analysis to fit the data to a 1:1 (Langmuir) interaction model.

gp32 His-tagged;Dda-K38A = molecular target: T2, gp32 His-tagged;Dda-K38A (bacteriophage T4;bacteriophage T4, UniProt P03695;P32270 1-301;1-439, |K38A); assay: gel filtration; 50 mM NaCl; purified complex crystallized; EMSA: 25 mM HEPES pH 7.5, 5 mM MgCl2, 0.1 mM EDTA, 2 mM 2-mercaptoethanol, 1 mg/ml BSA, 5% glycerol, 10 or 150 mM NaCl, room temperature (gel 4 C); gel filtration: 20 mM Tris-HCl pH 7.0, 200 mM NaCl (50 mM for crystallization), 0.5 mM EDTA, 5 mM 2-mercaptoethanol; conditions: protein: recombinant;recombinant; tags: N-terminal 6xHis;6xHis (stated for SPR); copies: 1;1; single strand
T2 sequence 1: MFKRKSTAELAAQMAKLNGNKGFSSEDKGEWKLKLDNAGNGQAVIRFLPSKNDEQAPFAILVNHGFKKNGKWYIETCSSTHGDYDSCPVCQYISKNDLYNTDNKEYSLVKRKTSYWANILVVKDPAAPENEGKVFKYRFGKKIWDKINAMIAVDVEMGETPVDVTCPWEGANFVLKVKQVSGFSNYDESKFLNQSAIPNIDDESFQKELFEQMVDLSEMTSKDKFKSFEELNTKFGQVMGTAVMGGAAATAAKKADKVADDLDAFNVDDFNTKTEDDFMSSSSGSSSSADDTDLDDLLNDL
T2 sequence 2: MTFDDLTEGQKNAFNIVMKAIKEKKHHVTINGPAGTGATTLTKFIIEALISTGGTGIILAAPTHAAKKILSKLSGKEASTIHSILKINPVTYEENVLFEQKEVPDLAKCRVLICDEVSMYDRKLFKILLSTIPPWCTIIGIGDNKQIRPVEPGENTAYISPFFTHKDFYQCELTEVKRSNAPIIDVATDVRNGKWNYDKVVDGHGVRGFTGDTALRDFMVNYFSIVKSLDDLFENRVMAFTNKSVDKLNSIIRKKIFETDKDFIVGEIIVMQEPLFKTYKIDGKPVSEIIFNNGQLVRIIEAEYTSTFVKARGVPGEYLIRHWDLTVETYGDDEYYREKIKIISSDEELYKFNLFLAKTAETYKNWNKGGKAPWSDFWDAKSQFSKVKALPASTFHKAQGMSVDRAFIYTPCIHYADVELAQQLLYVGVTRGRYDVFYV

[1] = test system: Dda binding to ssDNA (5′F-T30); assay: Electrophoretic mobility shift assay of Dda binding to 5′F-T30 ssDNA with or without gp32; set-up: species or system bacteriophage T4; conditions: EMSA, 5 nM 5′F-T30, 100 nM gp32, 10 mM or 150 mM NaCl, 10 min room temperature; three independent sets, Hill fit
Experimental: Varying amounts of Dda were mixed with 5 nM 5′F-T30 with or without 100 nM gp32 in 25 mM HEPES, pH 7.5, 5 mM MgCl2, 0.1 mM EDTA, 2 mM β-mercaptoethanol, 1 mg/ml bovine serum albumin, 5% glycerol, 0.05% Orange G and either 10 mM NaCl or 150 mM NaCl. Samples were incubated at room temperature in the dark for 10 min before separating on a 6% 100:1 acrylamide:bisacrylamide gel at 4°C. Gels were imaged on an Amersham Typhoon RGB Imager (Cytiva) with excitation using a 488 nm laser and emission measured after a 525BP20 filter. Data were quantified using ImageQuant software (GE Healthcare) and fit to the Hill equation.
Figure S6. gp32 enhances the affinity of Dda for ssDNA. (A) Electrophoretic mobility shift assays (EMSAs) of 5 nM 5′-F-T30 with increasing concentrations of Dda at 10 mM NaCl and 150 mM NaCl. (B) EMSAs of 5 nM 5′-F-T30 with 100 nM gp32 and increasing concentrations of Dda at 10 mM NaCl and 150 mM NaCl. ( C) The fraction of Dda bound DNA from three independent sets of EMSAs is plotted (average and standard deviation) and fit to the Hill equation. (D) The average and standard deviation of the apparent K d for each condition are given.
(1 picture or pasted object on this page, not shown here)

wild-type Dda = assay: Dda-dependent DNA unwinding assay with gp32 variants (fluorescein-quenched replication fork substrate, no annealing trap); assay type: biochemical, bacteriophage T4; conditions: 375 nM gp32 variant, 25 nM wild-type Dda, 25 nM substrate, 2.5 mM ATP, triplicate experiments
Experimental: A partial duplex substrate mimicking a replication fork was prepared by mixing equimolar concentrations of the following oligonucleotides: loading strand - […]/36-FAM/, displaced strand - […], and leading strand - […] in 10 mM HEPES/1 mM EDTA. The sample was heated to 95°C for 5 min, followed by slowly cooling to room temperature. All concentrations are final, after mixing. ATP (2.5 mM), Mg(OAc)2 (5 mM) and gp32 (375 nM) in assay buffer (25 mM HEPES, pH 7.5, 10 mM KOAc, 0.1 mM EDTA, 2 mM β-mercaptoethanol, 1 mg/ml bovine serum albumin and 4 mM phosphoenol pyruvate) were mixed and added to wells in one row of a black 96-well plate. The reactions were initiated by adding 25 nM substrate, 25 nM wild-type Dda and 5 U/ml pyruvate kinase/lactate dehydrogenase in assay buffer with a multichannel pipette to the entire row simultaneously. Fluorescein fluorescence was measured 8 times per minute in a VICTOR Nivo Multimode Plate Reader (Perkin Elmer) at room temperature with excitation through a 480/30 nm bandpass filter and emission measured after a 530/30 nm bandpass filter.

240–253: synthetic peptide of gp32 C-terminus residues 240–253 (GTAVMGGAAATAAK)
Binding to Dda-K38A/dT20 (in words) (Dda-K38A/dT20): failed to bind; also recorded: showed no binding

B1: dT18 (ssDNA)
DNA: TTTTTTTTTTTTTTTTTT
binding result (gp32 His-tagged;Dda-K38A): binds

B2: wild-type gp32: bacteriophage T4 single-stranded DNA-binding protein, full length, N-terminal 6xHis-tag (protein)
chain: MFKRKSTAELAAQMAKLNGNKGFSSEDKGEWKLKLDNAGNGQAVIRFLPSKNDEQAPFAILVNHGFKKNGKWYIETCSSTHGDYDSCPVCQYISKNDLYNTDNKEYSLVKRKTSYWANILVVKDPAAPENEGKVFKYRFGKKIWDKINAMIAVDVEMGETPVDVTCPWEGANFVLKVKQVSGFSNYDESKFLNQSAIPNIDDESFQKELFEQMVDLSEMTSKDKFKSFEELNTKFGQVMGTAVMGGAAATAAKKADKVADDLDAFNVDDFNTKTEDDFMSSSSGSSSSADDTDLDDLLNDL
modifications: left off: 6xHis, N-terminal, kept
Effect of gp32 on Dda binding to ssDNA (in words) [1]: increases the affinity of Dda for the ssDNA; also recorded: reduces the fraction of ssDNA bound by Dda
Rate constant of product formation (single exponential fit) (wild-type Dda; 5 mM Mg(OAc)2, pH 7.5, room temperature, fluorescein fluorescence): 0.023 s⁻¹
Amplitude of the product formation curve (fluorescence) (wild-type Dda; higher amplitude = more effective prevention of reannealing): 280 000
